For orientation: Kd means the concentration at which binding is half-saturated.

Experimental findings from patent US20260167728A1 (published 2026) are described below.

For experiment [1], the target named is T1, huCD3e-mFc (human, UniProt P07766 23-126).
T1 construct: not shown: mFc, not described
As to the kind of experiment: Pool 3 screen.

The target of experiment [2] is T1, huCD3e-mFc. The experiment can be described thus: Pool 3 screen, R2.
In experiment [3] the target is T1, huCD3e-mFc. The experiment can be described thus: Pool 3 screen, R3.

T1 sequence (P07766 23-126): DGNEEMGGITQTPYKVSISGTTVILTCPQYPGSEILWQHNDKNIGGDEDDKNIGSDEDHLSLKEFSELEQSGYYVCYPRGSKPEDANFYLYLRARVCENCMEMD

B1: AC3797 (CD3.293) (scFv, V domains shown)
VH: EVQLVESGGGIVQPGGSLRLSCAASGFTFSTYAMNWVRQAPGKGLEWVGRIRTKRNNYATYYADSVKGRFTISRDDSKNTVYLQMNSLKTEDTAVYYCVRHENFGNSYVSWFAHWGQGTLVTVSS
VL: ELVVTQEPSLTVSPGGTVTLTCRSSNGAVTSSNYANWVQQKPGQAPRGLIGGTNKRAPGTPARFSGSALGGKAALTLSGVQPEDEAVYYCALWYPNLWVFGGGTKLTVL
notes: Pool 3 format (remarks)
For the molecule B1, the Kd with huCD3e-mFc [1] came out at 3.8 nM; with huCD3e-mFc [2] it was 3.72 nM.

B2: AC3809 (CD3.305) (scFv, V domains shown)
VH: EVQLVESGGGIVQPGGSLRLSCAASGFTFSTYAMNWVRQAPGKGLEWVGRIRTKRNDYATYYADSVKGRFTISRDDSKNTAYLQMNSLKTEDTAVYYCVRHENFGNSYVSWFAHWGQGTLVTVSS
VL: ELVVTQEPSLTVSPGGTVTLTCRSSNGAVTSSNYANWVQQKPGQAPRGLIGGTNKRAPGTPARFSGSLEGGKAALTLSGVQPEDEAVYYCALWYPNLWVFGGGTKLTVL
notes: Pool 3 format (remarks)
In the case of B2, the dissociation constant (Kd) turned out to be 6.28 nM in the experiment with huCD3e-mFc [1] and 4.6 nM with huCD3e-mFc [3].

B3: AC3803 (CD3.299) (scFv, V domains shown)
VH: EVQLVESGGGIVQPGGSLRLSCAASGFTFSTYAMNWVRQAPGKGLEWVGRIRTKRNNYATYYADSVKGRFTISRDDSKNTVYLQMNSLKTEDTAVYYCVRHENFGNSYVSWFAHWGQGTLVTVSS
VL: ELVVTQEPSLTVSPGGTVTLTCRSSNGAVTSSNYANWVQQKPGQAPRGLIGGTNKRAPGTPARFSGSLLGGKAGLTLSGVQPEDEAVYYCALWYPNLWVFGGGTKLTVL
notes: Pool 3 format (remarks)
For the molecule B3, the Kd with huCD3e-mFc [2] was 7.96 nM.

B4: AC3878 (CD3.374) (scFv, V domains shown)
VH: EVQLVESGGGIVQPGGSLRLSCAASGFTFSTYAMNWVRQAPGKGLEWGGRIRTKRNNYATYYADSVKGRFTISRDDSKNTVYLQMNSLKTEDTAVYYCVRHENFGNSYVSWFAHWGQGTLVTVSS
VL: ELVVTQEPSLTVSPGGTVTLTCRSSNGAVTSSNYANWVQQKPGQAPRGLIGGTNKRAPGTPARFSGSLLGGKAALTLSGVQPEDEAVYYCALWYPNLWVFGGGTKLTVL
notes: Pool 3 format (remarks)
As to B4, binding with huCD3e-mFc [2] was characterised by a dissociation constant (Kd) of 17 nM.

B5: AC3800 (CD3.296) (scFv, V domains shown)
VH: EVQLVESGGGIVQPGGSLRLSCAASGFTFSTYAMNWVRQAPGKGLEWVGRIRTKRNNYATYYADSVKGRFTISRDDSKNTVYLQMNSLKTEDTAVYYCVRHENFGNSYVSWFAHWGQGTLVTVSS
VL: ELVVTQEPSLTVSPGGTVTLTCRSSNGAVTSSNYANWVQQKPGQAPRGLIGGTNKRAPGTPARFSGSLEGGKAALTLSGVQPEDEAVYYCALWYPNLWVFGGGTKLTVL
notes: Pool 3 format (remarks)
Take B5: the Kd in the experiment with huCD3e-mFc [1] stood at 4.74 nM; with huCD3e-mFc [2], 17 nM.

B6: AC3805 (CD3.301) (scFv, V domains shown)
VH: EVQLVESGGGIVQPGGSLRLSCAASGFTFSTYAMNWVRQAPGKGLEWVGRIRTKRNDYATYYADSVKGRFTISRDDSKNTAYLQMNSLKTEDTAVYYCVRHENFGNSYVSWFAHWGQGTLVTVSS
VL: ELVVTQEPSLTVSPGGTVTLTCRSSNGAVTSSNYANWVQQKPGQAPRGLIGGTNKRAPGTPARFSGSLLGGKAALTLSGVQPEDEAVYYCALWYPNLWVFGGGTKLTVL
notes: Pool 3 format (remarks)
For B6, the Kd in the experiment with huCD3e-mFc [1] stood at 5.53 nM; in the experiment with huCD3e-mFc [3] it was 4.4 nM.

B7: AC3886 (CD3.382) (scFv, V domains shown)
VH: EVQLVESGGGIVQPGGSLRLSCAASGFTFSTYAMNWVRQAPGKGLEWVGRIRTKRNNYATYYADSVKGRFTISRDDSKNTVYLQMNSLKTEDTAVYYCVRHENFGNAYVSWFAHWGQGTLVTVSS
VL: ELVVTQEPSLTVSPGGTVTLTCRSSNGAVTSSNYANWVQQKPGQAPRGLIGGTNKRAPGTPARFSGSLLGGKAALTLSGVQPEDEAVYYCALWYPNLWVFGGGTKLTVL
notes: Pool 3 format (remarks)
For B7, the Kd with huCD3e-mFc [2] worked out at 21.2 nM. This counts as double-digit nanomolar.

B8: AC3885 (CD3.381) (scFv, V domains shown)
VH: EVQLVESGGGIVQPGGSLRLSCAASGFTFSTYAMNWVRQAPGKGLEWVGRIRTKRNNYATYYADSVKGRFTISRDDSKNTVYLQMNSLKTEDTAVYYCVRHENFGASYVSWFAHWGQGTLVTVSS
VL: ELVVTQEPSLTVSPGGTVTLTCRSSNGAVTSSNYANWVQQKPGQAPRGLIGGTNKRAPGTPARFSGSLLGGKAALTLSGVQPEDEAVYYCALWYPNLWVFGGGTKLTVL
notes: Pool 3 format (remarks)
Take B8: the dissociation constant Kd with huCD3e-mFc [3] came out at 4.2 nM.

B9: AC3813 (CD3.309) (scFv, V domains shown)
VH: EVQLVESGGGIVQPGGSLRLSCAASGFTFSTYAMNWVRQAPGKGLEWVGRIRTKRNDYATYYADSVKGRFTISRDDSKNTAYLQMNSLKTEDTAVYYCVRHENFGNSYVSWFAHWGQGTLVTVSS
VL: ELVVTQEPSLTVSPGGTVTLTCRSSNGAVTSSNYANWVQQKPGQAPRGLIGGTNKRAPGTPARFSGSLLEGKAALTLSGVQPEDEAVYYCALWYPNLWVFGGGTKLTVL
notes: Pool 3 format (remarks)
For B9, the Kd with huCD3e-mFc [1] was determined as 5.82 nM; in the experiment with huCD3e-mFc [3] it was 5.4 nM.

B10: AC3798 (CD3.294) (scFv, V domains shown)
VH: EVQLVESGGGIVQPGGSLRLSCAASGFTFSTYAMNWVRQAPGKGLEWVGRIRTKRNNYATYYADSVKGRFTISRDDSKNTVYLQMNSLKTEDTAVYYCVRHENFGNSYVSWFAHWGQGTLVTVSS
VL: ELVVTQEPSLTVSPGGTVTLTCRSSNGAVTSSNYANWVQQKPGQAPRGLIGGTNKRAPGTPARFSGSGLGGKAALTLSGVQPEDEAVYYCALWYPNLWVFGGGTKLTVL
notes: Pool 3 format (remarks)
On to B10, for which the Kd is 3.05 nM with huCD3e-mFc [1] and 5.75 nM with huCD3e-mFc [2].

B11: AC3811 (CD3.307) (scFv, V domains shown)
VH: EVQLVESGGGIVQPGGSLRLSCAASGFTFSTYAMNWVRQAPGKGLEWVGRIRTKRNDYATYYADSVKGRFTISRDDSKNTAYLQMNSLKTEDTAVYYCVRHENFGNSYVSWFAHWGQGTLVTVSS
VL: ELVVTQEPSLTVSPGGTVTLTCRSSNGAVTSSNYANWVQQKPGQAPRGLIGGTNKRAPGTPARFSGSLDGGKAALTLSGVQPEDEAVYYCALWYPNLWVFGGGTKLTVL
notes: Pool 3 format (remarks)
Consider B11, for which the equilibrium dissociation constant (Kd) in the experiment with huCD3e-mFc [1] was 6.35 nM; in the experiment with huCD3e-mFc [3], 4.8 nM.

B12: AC3801 (CD3.297) (scFv, V domains shown)
VH: EVQLVESGGGIVQPGGSLRLSCAASGFTFSTYAMNWVRQAPGKGLEWVGRIRTKRNNYATYYADSVKGRFTISRDDSKNTVYLQMNSLKTEDTAVYYCVRHENFGNSYVSWFAHWGQGTLVTVSS
VL: ELVVTQEPSLTVSPGGTVTLTCRSSNGAVTSSNYANWVQQKPGQAPRGLIGGTNKRAPGTPARFSGSLGGGKAALTLSGVQPEDEAVYYCALWYPNLWVFGGGTKLTVL
notes: Pool 3 format (remarks)
For the molecule B12, the values for the dissociation constant Kd with huCD3e-mFc [1] and with huCD3e-mFc [2] were 3.92 nM and 21.2 nM, respectively.

B13: AC3802 (CD3.298) (scFv, V domains shown)
VH: EVQLVESGGGIVQPGGSLRLSCAASGFTFSTYAMNWVRQAPGKGLEWVGRIRTKRNNYATYYADSVKGRFTISRDDSKNTVYLQMNSLKTEDTAVYYCVRHENFGNSYVSWFAHWGQGTLVTVSS
VL: ELVVTQEPSLTVSPGGTVTLTCRSSNGAVTSSNYANWVQQKPGQAPRGLIGGTNKRAPGTPARFSGSLDGGKAALTLSGVQPEDEAVYYCALWYPNLWVFGGGTKLTVL
notes: Pool 3 format (remarks)
B13: the equilibrium dissociation constant (Kd) was 4.07 nM in the experiment with huCD3e-mFc [1] and 8 nM in the experiment with huCD3e-mFc [2].

B14: AC3850 (CD3.346) (scFv, V domains shown)
VH: EVQLVESGGGIVQPGGSLRLSCAASGFTFSTYAMNWVRQAPGKGLEWVGRIRTKTNNYATYYADSVKGRFTISRDDSKNTVYLQMNSLKTEDTAVYYCVRHENFGNSYVSWFAHWGQGTLVTVSS
VL: ELVVTQEPSLTVSPGGTVTLTCRSSNGAVTSSNYANWVQQKPGQAPRGLIGGTNKRAPGTPARFSGSLLGGKAALTLSGVQPEDEAVYYCALWYPNLWVFGGGTKLTVL
notes: Pool 3 format (remarks)
Consider B14, for which the Kd in the experiment with huCD3e-mFc [1] stood at 9.83 nM; with huCD3e-mFc [2], 10.8 nM.
